The values below come from patent US20160271244A1.

The target of the experiment is Env (gp120) of HIV-1 JRCSF.N160K (HIV-1), P20871. The experiment is described as follows: cell-based or functional assay.

B1: CH01 (antibody, V domains shown)
VH: EVQLVESGANVVRPGGSLRLSCKASGFIFENFGFSWVRQAPGKGLQWVAGLNWNGGDTRYADSVKGRFRMSRDNSRNFVYLDMDKVGVDDTAFYYCARGTDYTIDDAGIHYQGSGTFWYFDLWGRGTLVSVSS
VL: EIVLTQSPGTLSLSPGERATLSCRASHNVHPKYFAWYQQKPGQSPRLLIYGGSTRAAGIPGKFSGSGSGTDFTLTISRVDPEDFAVYYCQQYGGSPYTFGQGTKVEI
The molecule B1 gave an IC50 (virus neutralization) above 50 µg/mL and an IC80 (virus neutralization) above 50 µg/mL.
